The text below walks through data of patent US7732151B2, “Use of IRS-polypeptides for identifying of pharmaceutically active compounds” (Sanofi-Aventis Deutschland GmbH, priority 2003, dated 2010).

The EC50 is the concentration giving half of the maximal effect. As usually defined, the Km is the concentration of substrate that gives half-maximal velocity.

Data set [1] concerns the target T1, rat liver insulin receptor (WGA-IR) (Rattus norvegicus, UniProt P15127).
T1 construct: tissue Sigma (named as alternative source) 70543; host or cells: rat liver
The data set can be described thus: ALPHAScreen: phosphorylation of biotinylated IRS-1 fragment by wheat germ lectin affinity-purified rat liver insulin receptor. The data set is classed as biochemical. The following applies: 85 nM biotinylated IRS fragment, 50 μM ATP, 30° C. for 30 minutes, p-Tyr antibody detection, FIG. 4. The source says:
The measurement of the kinase activity using ALPHAScreen™ from Perkin-Elmer Life Sciences, which is particularly expedient for the purposes of the present invention, takes place for example by the kinase to be investigated phosphorylating a biotinylated peptide in a biochemical mixture in the presence of ATP. The phosphorylated peptide is then bound by a specific anti-phospho antibody to which protein A-conjugated acceptor beads or provided with suitable second antibodies are coupled. The same mixture contains streptavidin-coupled donor beads which bind the biotin portion of the peptide. The binding to the peptide brings acceptor beads and donor beads in direct vicinity, starting a cascade of chemical reactions which generate a highly amplified, detectable luminescence signal: a photosensitizer in the donor bead is excited by laser excitation to convert oxygen in the surroundings into a singlet status. The singlet oxygen then diffuses to the acceptor bead where it excites a thioxene derivative which thus emits a chemiluminescence with a wavelength of 370 nm, which in turn excites further fluorophores in the acceptor bead to luminesce light with wavelengths of 520 to 620 nm. Since excitation of the fluorophores by singlet oxygen takes place only when donor bead and acceptor bead are in close vicinity, only then are detectable signals generated. […]

The conditions of data set [2]: kinetic constant as enzyme substrate; cited from earlier work.

T1 sequence (P15127 27-759 limits assumed): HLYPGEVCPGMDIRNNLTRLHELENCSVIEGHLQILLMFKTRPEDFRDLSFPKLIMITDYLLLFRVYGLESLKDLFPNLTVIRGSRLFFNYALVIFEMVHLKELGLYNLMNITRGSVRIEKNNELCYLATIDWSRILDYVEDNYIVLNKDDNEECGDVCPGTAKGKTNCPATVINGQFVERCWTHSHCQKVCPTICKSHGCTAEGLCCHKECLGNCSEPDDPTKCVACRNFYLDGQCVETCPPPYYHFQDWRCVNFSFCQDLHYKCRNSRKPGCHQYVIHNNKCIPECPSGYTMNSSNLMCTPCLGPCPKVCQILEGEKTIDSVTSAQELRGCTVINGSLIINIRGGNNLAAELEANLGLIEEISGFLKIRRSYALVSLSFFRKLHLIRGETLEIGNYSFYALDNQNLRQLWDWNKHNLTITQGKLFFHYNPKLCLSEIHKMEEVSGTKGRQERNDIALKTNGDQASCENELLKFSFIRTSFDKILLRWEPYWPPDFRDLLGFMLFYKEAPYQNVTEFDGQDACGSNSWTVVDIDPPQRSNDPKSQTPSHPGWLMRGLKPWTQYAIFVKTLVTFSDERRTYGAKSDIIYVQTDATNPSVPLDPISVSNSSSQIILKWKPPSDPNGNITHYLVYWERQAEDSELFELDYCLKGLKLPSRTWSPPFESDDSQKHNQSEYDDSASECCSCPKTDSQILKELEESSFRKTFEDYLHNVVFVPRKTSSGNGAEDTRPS
T1 sequence (P15127 764-1383 partner limits assumed): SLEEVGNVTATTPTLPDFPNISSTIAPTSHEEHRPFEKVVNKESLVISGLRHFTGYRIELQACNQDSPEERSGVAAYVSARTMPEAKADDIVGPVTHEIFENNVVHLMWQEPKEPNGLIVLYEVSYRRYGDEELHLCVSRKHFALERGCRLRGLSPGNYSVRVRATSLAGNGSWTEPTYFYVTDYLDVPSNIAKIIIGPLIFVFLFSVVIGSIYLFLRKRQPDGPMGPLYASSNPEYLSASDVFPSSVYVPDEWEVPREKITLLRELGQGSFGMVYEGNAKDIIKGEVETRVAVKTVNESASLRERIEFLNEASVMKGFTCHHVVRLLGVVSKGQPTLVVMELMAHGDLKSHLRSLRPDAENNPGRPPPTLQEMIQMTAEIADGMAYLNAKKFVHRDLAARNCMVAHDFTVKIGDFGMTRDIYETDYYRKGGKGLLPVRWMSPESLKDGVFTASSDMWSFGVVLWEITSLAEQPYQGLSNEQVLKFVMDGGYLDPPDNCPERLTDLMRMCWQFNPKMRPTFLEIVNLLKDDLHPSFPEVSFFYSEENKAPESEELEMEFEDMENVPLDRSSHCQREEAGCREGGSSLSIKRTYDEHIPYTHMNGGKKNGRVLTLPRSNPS

Consider “insulin: human insulin, peptide hormone, commercially available from Sigma under order number I-9266”, for which the concentration for a half-maximal effect (EC50) in data set [1] was found to be 10 nM.

B1: IRS-1: insulin receptor substrate 1 polypeptide used as kinase substrate (protein, listed as Homo sapiens)
chain: MASPPESDGFSDVRKVGYLRKPKSMHKRFFVLRAASEAGGPARLEYYENEKKWRHKSSAPKRSIPLESCFNINKRADSKNKHLVALYTRDEHFAIAADSEAEQDSWYQALLQLHNRAKGHHDGAAALGAGGGGGSCSGSSGLGEAGEDLSYGDVPPGPAFKEVWQVILKPKGLGQTKNLIGIYRLCLTSKTISFVKLNSEAAAVVLQLMNIRRCGHSENFFFIEVGRSAVTGPGEFWMQVDDSVVAQNMHETILEAMRAMSDEFRPRSKSQSSSNCSNPISVPLRRHHLNNPPPSQVGLTRRSRTESITATSPASMVGGKPGSFRVRASSDGEGTMSRPASVDGSPVSPSTNRTHAHRHRGSARLHPPLNHSRSIPMPASRCSPSATSPVSLSSSSTSGHGSTSDCLFPRRSSASVSGSPSDGGFISSDEYGSSPCDFRSSFRSVTPDSLGHTPPARGEEELSNYICMGGKGPSTLTAPNGHYILSRGGNGHRCTPGTGLGTSPALAGDEAASAADLDNRFRKRTHSAGTSPTITHQKTPSQSSVASIEEYTEMMPAYPPGGGSGGRLPGHRHSAFVPTRSYPEEGLEMHPLERRGGHHRPDSSTLHTDDGYMPMSPGVAPVPSGRKGSGDYMPMSPKSVSAPQQIINPIRRHPQRVDPNGYMMMSPSGGCSPDIGGGPSSSSSSSNAVPSGTSYGKLWTNGVGGHHSHVLPHPKPPVESSGGKLLPCTGDYMNMSPVGDSNTSSPSDCYYGPEDPQHKPVLSYYSLPRSFKHTQRPGEPEEGARHQHLRLSTSSGRLLYAATADDSSSSTSSDSLGGGYCGARLEPSLPHPHHQVLQPHLPRKVDTAAQTNSRLARPTRLSLGDPKASTLPRAREQQQQQQPLLHPPEPKSPGEYVNIEFGSDQSGYLSGPVAFHSSPSVRCPSQLQPAPREEETGTEEYMKMDLGPGRRAAWQESTGVEMGRLGPAPPGAASICRPTRAVPSSRGDYMTMQMSCPRQSYVDTSPAAPVSYADMRTGIAAEEVSLPRATMAAASSSSAASASPTGPQGAAELAAHSSLLGGPQGPGGMSAFTRVNLSPNRNQSAKVIRADPQGCRRRHSSETFSSTPSATRVGNTVPFGAGAAVGGGGGSSSSSEDVKRHSSASFENVWLRPGELGGAPKEPAKLCGAAGGLENGLNYIDLDLVKDFKQCPQECTPEPQPPPPPPPHQPLGSGESSSTRRSSEDLSAYASISFQKQPEDRQ
Regarding B1, the Km in data set [2] was 19 µM.
